Test results from patent publication US20070148201A1 (Pieris, published 2007).

B1: BBP mutein CD4-2G3-L22 (designed binder)
chain: DVYHDGACPEVKPVDNFDWSQYHGKWWEVAKYPNIAELGGKCGWAEYTPEGKSVKVSNYHVINWNEMFIEGTAYPVGDSKIGKISHSLTKVGQTKENVFNVLSTDNKNYIIGYYCQYSERAKGHLDFVWVLSRSMVLTGEAKTAVENYLIGSPVVDSQKLVYSDFSEAACKVNN
B2: BBP mutein CD4-7B4-K23 (designed binder)
chain: DVYHDGACPEVKPVDNFDWSQYHGKWWEVAKYPNGNELRGKCGWAEYTPEGKSVKVSNYHVINTSEGFIEGTAYPVGDSKIGKIYHSLTNTGMTKENVFNVLSTDNKNYIIGYYCSWEVSKGHHDFVWVLSRSMVLTGEAKTAVENYLIGSPVVDSQKLVYSDFSEAACKVNNS
B3: BBP mutein CD4-7B4-N14 (designed binder)
chain: DVYHDGACPEVKPVDNFDWSQYHGKWWEVAKYPNRAEIGGKCGWAEYTPEGKSVKVSNYHVIKQWEKFIEGTAYPVGDSKIGKIYHSLTGTGSTKENVFNVLSTDNKNYIIGYYCNYHESRKGHRDFVWVLSRSMVLTGEAKTAVENYLIGSPVVDSQKLVYSDFSEAACKVNN
B4: BBP mutein CD4-2C3-N22 (designed binder)
chain: DVYHDGACPEVKPVDNFDWSQYHGKWWEVAKYPNAKESPGKCGWAEYTPEGKSVKVSNYHVIQRLEGFIEGTAYPVGDSKIGKIYHSLTTWGLTKENVFNVLSTDNKNYIIGYYCGYVEKSKGHPDFVWVLSRSMVLTGEAKTAVENYLIGSPVVDSQKLVYSDFSEAACKVNN
B5: BBP mutein CD4-2C3-K20 (designed binder)
chain: DVYHDGACPEVKPVDNFDWSQYHGKWWEVAKYPNTSEHSGKCGWAEYTPEGKSVKVSNYHVIKKKERFIEGTAYSAGDSKIGKIYHSLTSVGKTKENVFNVLSTDNKNYIIGYYCSYKEKTKGHGDFVWVLSRSMVLTGEAKTAVENYLIGSPVVDSQKLVYSDFSEAACKVNN
B6: BBP mutein CD4-2G3-H22 (designed binder)
chain: DVYHDGACPEVKPVDNFDWSQYHGKWWEVAKYPNMTEVKGKCGWAEYTPEGKSVKVSNYHVIREKEWFIEGTAYPVGDSKIGKIYHSLTISGLTKENVFNVLSTDDKNYIIGYYCKYMELWKGHRDFVWVLSRSMVLTGEAKTAVENYLIGSPVVDSQKLVYSDFSEAACKVNN

How the values were obtained:
[1] = target: fusion construct of the CD4 V-domain and CD4 D1-domain of the human CD4 coreceptor (amino acids 1-184) with … (human, UniProt P01730 26-209); experiment: ELISA, mutein coated on plate, digoxigenin-conjugated CD4-VD1 titrated from 2000 nM, anti-digoxigenin Fab-AP detection, apparent KD from curve fit
Procedure: (§1) After washing five times with 100 μl PBST/0.05 per well employing an automated ELISA plate washer, the wells were filled with 100 μl PBST containing 3% w/v non-fat dry milk powder (Vitalia), in order to saturate unspecific binding sites and incubated for one hour at room temperature. After blocking, the microtiter plate was washed two times with 100 μl PBST/0.05 as described above.
(§2) Then a dilution series of conjugates of digoxigenin and either the prescribed protein target CD4-VD1 or the unrelated control protein RNaseB, both produced as described in Example 25, was prepared in PBST starting from 2000 nM concentration and incubated for 1 h at room temperature. Subsequently, plates were washed again five times like above and 20 μl of an anti-digoxigenin-Fab-fragment-alkaline phosphatase-conjugate (Roche), diluted 1:1000 in PBST was added to each well and incubated for 1 hour at room temperature. Plates were washed again five times as described above and 20 μl of the fluorogenic substrate AttoPhos (Roche; prepared as described by the manufacturer) was added to detect bound CD4-VD1 by means of the attached digoxigenin groups. After 10 minutes at room temperature fluorescence was excited at a wavelength of 430 nm (±17.5 nm) and measured at 535 nm (÷12.5 nm) in a GENiosPlus plate reader.
The resulting binding curves were fitted by non-linear least squares regression as described in Example 8 and are depicted in FIG. 14 and FIG. 15. The values obtained for the apparent dissociation constants of the complexes between the BBP muteins CD4-2C3-K20, CD4-2C3-N22, CD4-2G3-H22, CD4-2G3-L22, CD4-7B4-K21, CD4-7B4-K23, and CD4-7B4-N14 and the prescribed target protein CD4-VD1 as well as for the complexes between the BBP muteins and the control protein RNaseB are summarized in Table 11.

[2] = target: T1, RNaseB (UniProt P61823 27-150); experiment: ELISA: BBP mutein coated on the plate, digoxigenin-conjugated RNaseB titrated 0-2000 nM, detected with anti-digoxigenin Fab-alkaline phosphatase, fluorescence (Example 27)
T1 construct: also called unrelated control protein RNaseB
T1 sequence (looked up): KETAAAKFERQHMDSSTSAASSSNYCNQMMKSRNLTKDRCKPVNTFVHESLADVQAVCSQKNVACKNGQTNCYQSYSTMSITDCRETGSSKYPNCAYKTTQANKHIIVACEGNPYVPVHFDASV
Procedure: as §1, §2

| Binder | Kd [1] | binding result [2] |
| --- | --- | --- |
| B1 | 200 nM | no binding (tested: 2000 nM) |
| B2 | 169 nM | no binding (tested: 2000 nM) |
| B3 | 177 nM | no binding (tested: 2000 nM) |
| B4 | 185 nM | no binding (tested: 2000 nM) |
| B5 | 136 nM | no binding (tested: 2000 nM) |
| B6 | 105 nM | no binding (tested: 2000 nM) |
